From patent US10876098B2, “Polynucleotide, host cell and a method to recombinantly produce the protein encoded by said polynucleotide having peroxygenative activity” (CONSEJO SUPERIOR DE INVESTIGACIONES CIENTIFICAS (CSIC), priority 2015, dated 2020)

Legend:
Assay in all cases: purified protein, by the assay type
[1] = substrate: CC(C)NCC(O)COc1cccc2ccccc12
[2] = substrate: CCn1c(=NN=c2sc3cc(S(=O)(=O)O)ccc3n2CC)sc2cc(S(=O)(=O)O)ccc21; settings: other: 100 mM sodium phosphate/citrate pH 4.0, 2 mM H2O2 (ABTS); pH 4.0
[3] = substrate: OO; settings: other: H2O2, benzyl alcohol as substrate at saturation, pH 7.0
[4] = other: 100 mM potassium phosphate pH 7.0, 2 mM H2O2 (propranolol)
[5] = other: 100 mM potassium phosphate pH 7.0, 2 mM H2O2 (DMP, propranolol)

B1: Agrocybe aegerita unspecific peroxygenase AaeUPO1 (UPO, EC 1.11.2.1), wild type, SEQ ID NO: 2 (SEQ ID NO: 4 with wild-type signal peptide) (Cyclocybe aegerita) (protein)
chain: EPGLPPGPLENSSAKLVNDEAHPWKPLRPGDIRGPCPGLNTLASHGYLPRNGVATPVQIINAVQEGLNFDNQAAVFATYAAHLVDGNLITDLLSIGRKTRLTGPDPPPPASVGGLNEHGTFEGDASMTRGDAFFGNNHDFNETLFEQLVDYSNRFGGGKYNLTVAGELRFKRIQDSIATNPNFSFVDFRFFTAYGETTFPANLFVDGRRDDGQLDMDAARSFFQFSRMPDDFFRAPSPRSGTGVEVVIQAHPMQPGRNVGKINSYTVDPTSSDFSTPCLMYEKFVNITVKSLYPNPTVQLRKALNTNLDFFFQGVAAGCTQVFPYGRD
- Km [1, 4]: 2,239 ± 333 μM
- kcat [1, 4]: 150 ± 12 s⁻¹
- kcat/Km [1, 4]: 67000 ± 4800 M⁻¹ s⁻¹
- Km [2]: 25-0 ± 2.5 μM
- kcat [2]: 221 s⁻¹
- kcat/Km [2]: 8.8e+06 M⁻¹ s⁻¹
- Km [3]: 1,370 ± 162 μM
- kcat [3]: 290 s⁻¹
- kcat/Km [3]: 210000 M⁻¹ s⁻¹

B2: Agrocybe aegerita peroxygenase AaeUPO1 variant SoLo (JaWa + F191S: V57A, L67F, V75I, F191S, G241D, I248V, R257K, F311L), SEQ ID NO: 42 (Cyclocybe aegerita; … (protein)
chain: EPGLPPGPLENSSAKLVNDEAHPWKPLRPGDIRGPCPGLNTLASHGYLPRNGVATPAQIINAVQEGFNFDNQAAIFATYAAHLVDGNLITDLLSIGRKTRLTGPDPPPPASVGGLNEHGTFEGDASMTRGDAFFGNNHDFNETLFEQLVDYSNRFGGGKYNLTVAGELRFKRIQDSIATNPNFSFVDFRFSTAYGETTFPANLFVDGRRDDGQLDMDAARSFFQFSRMPDDFFRAPSPRSDTGVEVVVQAHPMQPGKNVGKINSYTVDPTSSDFSTPCLMYEKFVNITVKSLYPNPTVQLRKALNTNLDFLFQGVAAGCTQVFPYGRD
- Km [1, 4]: 391 ± 97 µM
- kcat [1, 4]: 497 ± 35 s⁻¹
- kcat/Km [1, 4]: 1.3e+06 ± 20000 M⁻¹ s⁻¹
- Km [3]: 1,430 ± 153 μM
- kcat [3]: 446 s⁻¹
- kcat/Km [3]: 310000 ± 18000 M⁻¹ s⁻¹

B3: Agrocybe aegerita peroxygenase AaeUPO1 variant JaWa (PaDa-I + G241D, R257K: V57A, L67F, V75I, G241D, I248V, R257K, F311L), SEQ ID NO: 24 (Cyclocybe aegerita; … (protein)
chain: EPGLPPGPLENSSAKLVNDEAHPWKPLRPGDIRGPCPGLNTLASHGYLPRNGVATPAQIINAVQEGFNFDNQAAIFATYAAHLVDGNLITDLLSIGRKTRLTGPDPPPPASVGGLNEHGTFEGDASMTRGDAFFGNNHDFNETLFEQLVDYSNRFGGGKYNLTVAGELRFKRIQDSIATNPNFSFVDFRFFTAYGETTFPANLFVDGRRDDGQLDMDAARSFFQFSRMPDDFFRAPSPRSDTGVEVVVQAHPMQPGKNVGKINSYTVDPTSSDFSTPCLMYEKFVNITVKSLYPNPTVQLRKALNTNLDFLFQGVAAGCTQVFPYGRD
- Km [1, 5]: 244 ± 92 µM
- kcat [1, 5]: 765 ± 76 s⁻¹
- kcat/Km [1, 5]: 3.1e+06 ± 90000 M⁻¹ s⁻¹
